The values below come from paper PMC3340929.

For this assay, the target named is NFS1–ISD11–ISCU2 protein complex (SDU) (human) (UniProt Q9HD34). The experiment in a line: enzyme activity titration.

Broadly, the Kd is the concentration at which binding is half-saturated. Low values mean a tighter complex, high ones a looser complex.

The substance “FXN N146A variant (from UniProt Q16595 82-210) (natural protein)” gave a Kd of 1.35 µM.
Next, “FXN N146K variant (FRDA missense mutation) (from UniProt Q16595 82-210) (natural protein)”: 6.25 µM.
Substance “FXN Q148G variant (from UniProt Q16595 82-210) (natural protein)” gave a Kd of 2.17 µM.
Then “FXN Q148R variant (FRDA missense mutation) (from UniProt Q16595 82-210) (natural protein)”, with 0.85 µM; and “FXN Q153A variant (from UniProt Q16595 82-210) (natural protein)”, with 7.5 µM.
In turn, “FXN R165C variant (FRDA missense mutation) (from UniProt Q16595 82-210) (natural protein)” displayed a Kd of 10.4 µM.
